The source of these data is patent US8889620B2, “Pharmaceutical compositions comprising peptide antagonists of vascular endothelial growth factor” (Children's Medical Center Corporation, priority 1997, dated 2014).

“Also recorded” adds a separate entry of the source. Where no end group is shown, it is not given here.

Assay [1] has as its system VEGF165-induced proliferation of HUVEC. In words: Inhibition of VEGF165-stimulated HUVEC proliferation. The format is cell-based, human. As to conditions: even at 25 ug/ml. The protocol: (§1) FIG. 6. GST-Ex 7+8 fusion protein inhibits VEGF165-stimulated HUVEC proliferation. HUVEC were cultured in 96-well dishes (5,000 cell/well) as in FIG. 2. Increasing concentrations of VEGF165 (open circles), together with 15 ug/ml GST-Ex 7+8 (closed circles) or 25 ug/ml GST (squares), were added to the medium, and the cells were incubated for 4 more days. DNA synthesis was measured in HUVEC as described in FIG. 2. The results represent the average counts of three wells, and the standard deviations were determined.
FIG. 7. GST-Ex 7+8 fusion protein inhibits VEGF165 and VEGF121-stimulated HUVEC proliferation. Increasing concentration of VEGF165 (circles) or VEGF121 (square) with 15 ug/ml GST-Ex 7+8 (closed symbols) or without GST-Ex 7+8 (open symbols) were added to HUVEC, and [*H]thymidine incorporation into the DNA was measured as in FIG. 2. The results represent the average counts of three wells and the standard deviations were determined.
(§2) HUVEC were seeded in gelatin-coated 96-well dishes at 4,000 cells/200 Ul/well in M-199 containing 5% FCS and GPS. After 24 H, VEGF isoforms and VEGF exon 7-GST fusion proteins were added to the wells at the same time. The cells were incubated for 72 h, and [3H]thymidine (1 pC/ml) was added for 10-12 h. The medium was aspirated, and the cells were trypsinized and harvested by an automatic cell harvester (TOMTEC) and loaded onto Filtermats (Wallac). The Filtermats were scanned and cpm were determined by a MicroBeta counter (Wallac). The results represent the average of samples assayed in triplicate, and the standard derivations were determined. All experiments were repeated at least three times and similar results were obtained.

Assay [2] addresses T1, KDR/Flk-1 and VEGF165R on HUVEC (Homo sapiens, UniProt O14786).
T1 construct: HUVEC, which express both KDR/Flk-1 and VEGF165R; endogenous in cells; host or cells: HUVEC (ATCC)
In words: Inhibition of 125I-VEGF165 binding to HUVEC. On the procedure:
(§3) FIGS. 3A-3C. Inhibition of ^125I-VEGF165 binding to HUVEC, MDA MB 231 cells, and PAE-KDR cells by GST-EX 7+8. ^125I-VEGF165 (5 ng,/ml) was bound to subconfluent cultures of HUVEC (3A), MDA MB 23 1 cells (3B), and PAE-KDR cells (3C) in 48-well dishes in the presence of increasing amounts of GST-Ex 7+8 (closed 20 square) or control GST protein (open squares). At the end of a 2-h incubation, the cells were washed and lysed, and the cell-associated radioactivity was determined with a γ-counter. The counts obtained are expressed as the percentage of the counts obtained in the presence of PBS without addition of GST or fusion protein.
FIGS. 5A and 5B. Localization of a core inhibitory region within exon 7. GST-Ex 7 fusion proteins containing full-length exon 7-encoded domain or truncations at the N-terminal and C-terminal ends were prepared as described in the Examples. ^125I-VEGF165 (5 ng/ml) was bound to subconfluent HUVEC cultures as described in FIG. 3, in the presence of increasing concentrations of the GST fusion proteins. At the end of a 2-h incubation, the cells were washed and lysed, and the cell-associated radioactivity was determined with a y counter. The counts obtained are expressed as percentage of the counts obtained in the presence of PBS without fusion protein B, the amino acid sequences of VEGF exon 7 derivatives. These derivatives were prepared to contain the first cysteine residue of exon 8 at their C termini to keep an even number of cysteine residue. FIG. 5B discloses SEQ ID NO: 19.
(§4) Binding and cross-linking experiments using 125I-VEGF165 and 125I-VEGF121 were performed at described previously (Gitay-Goren, et al., J. Biol. Chem., 287, 6003-6096 (1992), Soker, et al., J: Biol. Chem., 271,5761-5767 (1996)). VEGF binding was quantified by measuring the cell-associated radioactivity in a y-counter (Beckman, Gamma 5500). The counts represent the average of three walls. All experiments were repeated at least three times, and similar results were obtained. 125I-VEGF cross-linked complexes were resolved by 6% SDS-PAGE, and the gels were exposed to a phosphor screen and scanned after 24 h by a PhosphorImager (Molecular Dynamics). Subsequently, the gels were exposed to x-ray film.

The target of assay [3] is T2, VEGF165R on 231 cells (Homo sapiens, UniProt O14786).
T2 construct: to 231 cells which express only VEGF165R; endogenous in cells; host or cells: MDA-MB-231 (ATCC)
The experiment in a line: Inhibition of 125I-VEGF165 binding to MDA-MB-231 (231) cells. The protocol: as §3, §4

The target in assay [4] is T3, KDR/Flk-1 on PAE-KDR cells (Homo sapiens, UniProt P35968).
T3 construct: expressed in transfected cells; host or cells: porcine endothelial cells (PAE), gift of Dr. Claesson-Welsh
The experiment in a line: Inhibition of 125I-VEGF165 binding to PAE-KDR cells. Also on record: species or system porcine endothelial cells transfected to express KDR/Flk-1. The protocol: as §3
Human umbilical vein endothelial cells (HUVEC) were obtained from the American Type Culture Collection (ATCC) (Rockville, Md.) and grown on gelatin-coated dishes in M-199 medium containing 20% fetal calf serum (FCS) and a mixture of glutamine, penicillin, and streptomycin (GPS). Basic FGF (1 nglml) was added to the culture medium every other day. Porcine endothelial cells (PAE), parental and transfected to express KDRElk-1 (PAE-KDR), were kindly provided by Dr. Lema Claesson-Welsh and grown in F12 medium containing 10% FCS and GPS as described (Waltenberger, et al., J. Biol. Chem., 269,26988-26995 (1994)). MDAMB-231 (231) cells were obtained from ATCC and grown in Bulbecoo's modified Eagle's medium containing 10% FCS and GPS.
as §4

Assay [5] deals with T2, VEGF165R on 231 cells. As to conditions: Soker et al., J. Biol. Chem. 271, 5761-5767 (1996); cited from earlier work.
Another assay deals with VEGF165R (Homo sapiens, UniProt O14786). The experiment in a line: Direct binding/cross-linking of 125I-GST-Ex 7 to HUVEC: VEGF165R. Also on record: HUVEC, which express both KDR/Flk-1 and VEGF165R; endogenous in cells; host or cells: HUVEC (ATCC). Conditions: cross-linking, 1 ug/ml heparin, FIG. 1 lane 3; listed as exon 7 fusion protein. The protocol: (§5) FIG. 1. Cross-linking of 1 ^125I-VEGF165, ^125I-VEGF121 and ^125I-GST-EX 7 to HUVEC. ^125I-VEGF165 (5 ng/ml) (lane 1) or ^125I-VEGF121 (10 ng/ml) (lane 2) or ^125I-GST-EX 7 (50 nglml) (lane 3) were bound to subconfluent cultures of HUVEC in 6-cm dishes. The binding was carried out in the presence of 1 ug/ml heparin. At the end of a 2-H incubation, each ^125I-VEGF isoform was chemically cross-linked to the cell surface. The cells were lysed and proteins were resolved by 6% SDS-PAGE. The polyacrylamide gel was dried and exposed to x-ray film.
as §4

The target of another assay is KDR/Flk-1 (Homo sapiens, UniProt P35968). In words: Direct binding/cross-linking of 125I-GST-Ex 7 to HUVEC: KDR/Flk-1. Also noted: HUVEC, which express both KDR/Flk-1 and VEGF165R; endogenous in cells; host or cells: HUVEC (ATCC). Conditions: cross-linking, 1 ug/ml heparin, FIG. 1 lane 3; listed as exon 7 fusion protein. On the procedure: as §5, §4
A further assay relates to HUVEC. The experiment in a line: HUVEC proliferation ([3H]thymidine incorporation) in response to VEGF isoforms. The format is cell-based, human. The protocol: FIG. 2. HUVEC proliferation in response to VEGF165 and VEGF121 HUVEC were cultured in 96-well dishes (5,000 cell/well) for 24 h. Increasing amounts of VEGF165 (closed circles) or VEGF121 (open circles) were added to the medium, and the cells were incubated for 3 more days. DNA synthesis based on the incorporation of [3H] thymidine into HUVEC DNA was measured as described in the Examples. The results represent the average counts in three wells, and the standard deviations were determined.
as §1, §2
On the technique in general: Incorporation of labelled thymidine or its analogues reports DNA synthesis.

Setting [6] is: control GST protein, even at 20 μg/ml.

T2 sequence (O14786 22-923): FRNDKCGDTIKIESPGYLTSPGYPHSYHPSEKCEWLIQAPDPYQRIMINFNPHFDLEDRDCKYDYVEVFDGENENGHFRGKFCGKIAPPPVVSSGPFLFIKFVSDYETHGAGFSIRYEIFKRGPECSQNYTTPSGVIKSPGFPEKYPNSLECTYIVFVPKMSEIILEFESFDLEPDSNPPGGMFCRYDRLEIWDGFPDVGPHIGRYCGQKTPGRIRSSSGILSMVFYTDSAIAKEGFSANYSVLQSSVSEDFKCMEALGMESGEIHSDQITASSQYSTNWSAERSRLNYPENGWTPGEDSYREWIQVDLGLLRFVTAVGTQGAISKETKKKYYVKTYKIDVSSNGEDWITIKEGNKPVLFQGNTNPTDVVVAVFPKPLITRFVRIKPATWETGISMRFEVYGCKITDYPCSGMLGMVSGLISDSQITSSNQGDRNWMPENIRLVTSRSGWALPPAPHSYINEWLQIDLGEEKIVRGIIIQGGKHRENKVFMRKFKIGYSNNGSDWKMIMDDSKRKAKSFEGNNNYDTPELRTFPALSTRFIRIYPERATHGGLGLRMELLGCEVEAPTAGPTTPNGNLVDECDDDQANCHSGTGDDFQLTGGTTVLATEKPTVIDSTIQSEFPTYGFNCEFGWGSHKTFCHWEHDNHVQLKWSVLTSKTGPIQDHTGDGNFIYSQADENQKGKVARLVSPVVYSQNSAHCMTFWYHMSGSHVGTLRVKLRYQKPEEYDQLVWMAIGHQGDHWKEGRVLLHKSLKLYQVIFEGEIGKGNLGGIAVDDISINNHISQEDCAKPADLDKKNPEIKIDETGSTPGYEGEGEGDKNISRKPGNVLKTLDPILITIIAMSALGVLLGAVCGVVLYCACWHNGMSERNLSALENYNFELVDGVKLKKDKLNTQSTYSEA
T1 sequence (O14786 22-923): as above
T3 sequence (P35968 20-1356): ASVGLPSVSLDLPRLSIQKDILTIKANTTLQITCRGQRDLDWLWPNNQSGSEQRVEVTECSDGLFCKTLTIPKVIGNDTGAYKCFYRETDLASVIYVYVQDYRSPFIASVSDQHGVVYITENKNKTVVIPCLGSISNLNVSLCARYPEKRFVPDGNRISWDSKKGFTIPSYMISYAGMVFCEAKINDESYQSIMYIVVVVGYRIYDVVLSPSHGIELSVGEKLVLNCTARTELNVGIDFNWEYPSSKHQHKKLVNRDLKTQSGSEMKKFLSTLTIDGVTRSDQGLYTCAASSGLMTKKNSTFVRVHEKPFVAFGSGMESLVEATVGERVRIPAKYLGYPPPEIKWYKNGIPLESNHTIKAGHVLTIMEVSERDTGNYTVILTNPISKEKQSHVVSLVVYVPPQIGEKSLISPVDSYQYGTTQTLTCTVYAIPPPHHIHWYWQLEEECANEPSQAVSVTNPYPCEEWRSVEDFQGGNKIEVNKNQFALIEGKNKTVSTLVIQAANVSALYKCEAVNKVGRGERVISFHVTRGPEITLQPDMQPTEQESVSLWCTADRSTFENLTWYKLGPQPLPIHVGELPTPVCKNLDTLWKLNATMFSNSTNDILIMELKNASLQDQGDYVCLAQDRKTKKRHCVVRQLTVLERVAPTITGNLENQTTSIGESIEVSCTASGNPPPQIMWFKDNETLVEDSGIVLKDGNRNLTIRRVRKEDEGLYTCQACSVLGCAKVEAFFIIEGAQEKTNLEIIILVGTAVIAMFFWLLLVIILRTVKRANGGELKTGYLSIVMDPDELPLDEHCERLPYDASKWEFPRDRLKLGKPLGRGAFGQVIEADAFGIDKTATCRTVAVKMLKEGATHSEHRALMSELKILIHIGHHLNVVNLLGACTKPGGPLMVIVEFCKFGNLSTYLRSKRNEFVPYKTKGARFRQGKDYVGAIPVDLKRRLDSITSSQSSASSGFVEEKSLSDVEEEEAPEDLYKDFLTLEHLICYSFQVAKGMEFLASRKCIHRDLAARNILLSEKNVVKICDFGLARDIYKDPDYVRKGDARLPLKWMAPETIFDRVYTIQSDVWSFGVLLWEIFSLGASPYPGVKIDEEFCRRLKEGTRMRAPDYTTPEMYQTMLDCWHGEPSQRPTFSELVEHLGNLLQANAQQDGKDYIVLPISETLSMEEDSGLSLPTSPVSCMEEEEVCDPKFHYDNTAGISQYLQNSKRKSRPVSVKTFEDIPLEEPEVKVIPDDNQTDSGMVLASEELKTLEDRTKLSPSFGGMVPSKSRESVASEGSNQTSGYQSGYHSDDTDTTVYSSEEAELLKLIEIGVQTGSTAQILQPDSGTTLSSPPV
Sequence of VEGF165R (O14786 22-923): as the sequence (O14786 22-923) above
Sequence of KDR/Flk-1 (P35968 20-1356): as the sequence (P35968 20-1356) above

Regarding “GST protein: glutathione S-transferase alone, control protein prepared in a similar way [reference compound]”, in assay [1], the “inhibition of HUVEC proliferation by GST alone (in words)” value was “did not inhibit”. In assay [2] (setting [6]), the “effect of GST alone on 125I-VEGF165 binding to HUVEC (in words)” value is listed as “no significant effect; also recorded: did not inhibit”. Also, the “effect of GST alone on 125I-VEGF165 binding to 231 cells (in words)” value with VEGF165R on 231 cells [3] (setting [6]) is on record as “no significant effect; also recorded: did not inhibit”. In assay [4] (setting [6]), the “effect of GST alone on 125I-VEGF165 binding to PAE-KDR cells (in words)” value was “no significant effect; also recorded: did not inhibit”.
With “GST-Ex 7: GST fusion protein with the entire 44 amino acid VEGF exon 7-encoded domain plus first cysteine residue of exon 8”, the “direct binding to VEGF165R on 231 cells (in words)” value with VEGF165R on 231 cells [5] was “binds directly”. The “inhibition of 125I-VEGF165 binding to HUVEC” value is recorded as 80% in assay [2] (2 ug/ml fusion protein, FIG. 5) and 85-95% in assay [2] (125I-VEGF165 5 ng/ml, increasing concentrations of fusion protein, FIG. 3A). Further, the “inhibition of 125I-VEGF165 binding to HUVEC compared with GST-Ex 7+8 (in words)” value in assay [2] (data not shown) was “comparable to that of GST-Ex 7+8”. For the same molecule, the “direct binding to VEGF165R on HUVEC (in words)” value with VEGF165R is “binds directly; also recorded: could bind”. Also, the “inhibition of 125I-VEGF165 binding to 231 cells” value in the assay with VEGF165R on 231 cells [3] (125I-VEGF165 5 ng/ml, increasing concentrations of fusion protein, FIG. 3B) is on record as 98%. The “inhibition of 125I-VEGF165 binding to 231 cells compared with GST-Ex 7+8 (in words)” value in the assay with VEGF165R on 231 cells [3] (data not shown) is “comparable to that of GST-Ex 7+8”. The “direct binding to KDR/Flk-1 on HUVEC (in words)” value in the assay with KDR/Flk-1 was “not and does not bind directly”. The “inhibition of 125I-VEGF165 binding to PAE-KDR cells (in words)” value in assay [4] (125I-VEGF165 5 ng/ml, FIG. 3C) was “did not, however, inhibit at all”.
Regarding “GST-Ex 7d-(1-10): GST-exon 7 fusion protein with the first 10 N-terminal amino acids of exon 7 deleted (HLFVQDPQTCKCSCKNTDSRCKARQLELNERTCRC; cysteine pairing not given here; also: GST fusion protein, side of fusion not given here)”, the “inhibitory activity on 125I-VEGF165 binding to HUVEC after deletion in exon 7, versus GST-Ex 7 (in words)” value in assay [2] (FIG. 5, increasing concentrations) is recorded as “did not reduce the inhibitory activity”.
As to “VEGF165: human recombinant vascular endothelial growth factor 165 isoform produced in Sf-21 insect cells”, the “increase in the proliferation rate of HUVEC” value in the assay on HUVEC (1-5 ng/ml VEGF165, FIG. 6) was found to be 5.5 fold. The “concentration at which the proliferation increase peaks” value in the assay with HUVEC (FIG. 6) was 2.5 ng/mL. In addition, in the assay with HUVEC (HUVEC, FIG. 2), the “concentration for maximal stimulation of DNA synthesis” value was determined as 4 ng/mL and the “increase in HUVEC proliferation over control at maximal stimulation” value is on record as 8 fold. The “concentration for half-maximal stimulation of DNA synthesis” value in the assay on HUVEC (HUVEC, [3H]thymidine incorporation, FIG. 2) turned out to be 1 ng/mL.

B1: VEGF121: human recombinant vascular endothelial growth factor 121 isoform produced in Sf-21 insect cells (protein)
chain: APMAEGGGQNHHEVVKFMDVYQRSYCHPIETLVDIFQEYPDEIEYIFKPSCVPLMRCGGCCNDEGLECVPTEESNITMQIMRIKPHQGQHIGEMSFLQHNKCECRPKKDRARQEKCDKPRR
Take B1: in the assay on HUVEC (HUVEC, FIG. 2), the “concentration for maximal stimulation of DNA synthesis” value came to 20 ng/mL and the “increase in HUVEC proliferation over control at maximal stimulation” value came to 4 fold.
